Earlier results in EP0632082B1, “Preparation of activated carbamates of poly(alkylene glycol) and their use” ("HEYLECINA", Société Anonyme, priority 1993, dated 1995).

Conditions: modification with SC-mPEG

Substance: papaya proteinase III: papaya proteinase III modified with SC-mPEG
- increase of specific activity: 250%
